Results on two substances are retold here after publication PMC6445466.

Assay [1] has as its target human C1r, full-length enzyme (human) (UniProt P00736).
For assay [2], the target named is BBK32-C (residues 206-354, B. burgdorferi strain B31) (Borrelia burgdorferi strain B31) (UniProt O50835). The experiment in a line: SPR; Biacore T200, 25°C; borrelial protein immobilised by amine coupling (CMD200M chip); C1 as analyte, two-fold dilution series 0 to 150 nM, 2 min association, 3 min dissociation; HBS-T (20 mM HEPES pH 7.3, 140 mM NaCl, 0.005% Tween-20) with 5 mM CaCl2; 1:1 kinetic fit; triplicate.

Assay [3] addresses BAD16-C (residues 204-352, B. afzelii strain PGau) (Borrelia afzelii strain PGau). The description is as above.
The target of assay [4] is BXK32-C (BBK32-C E308K-Q319K-E324Q) (Borrelia burgdorferi strain B31) (UniProt O50835). Described as above.
For assay [5], the target named is BBK32(206-348) (residues 206-348, B. burgdorferi strain B31) (Borrelia burgdorferi strain B31) (UniProt O50835). Described as above.

Chain of human C1r, full-length enzyme (human) (P00736 18-705): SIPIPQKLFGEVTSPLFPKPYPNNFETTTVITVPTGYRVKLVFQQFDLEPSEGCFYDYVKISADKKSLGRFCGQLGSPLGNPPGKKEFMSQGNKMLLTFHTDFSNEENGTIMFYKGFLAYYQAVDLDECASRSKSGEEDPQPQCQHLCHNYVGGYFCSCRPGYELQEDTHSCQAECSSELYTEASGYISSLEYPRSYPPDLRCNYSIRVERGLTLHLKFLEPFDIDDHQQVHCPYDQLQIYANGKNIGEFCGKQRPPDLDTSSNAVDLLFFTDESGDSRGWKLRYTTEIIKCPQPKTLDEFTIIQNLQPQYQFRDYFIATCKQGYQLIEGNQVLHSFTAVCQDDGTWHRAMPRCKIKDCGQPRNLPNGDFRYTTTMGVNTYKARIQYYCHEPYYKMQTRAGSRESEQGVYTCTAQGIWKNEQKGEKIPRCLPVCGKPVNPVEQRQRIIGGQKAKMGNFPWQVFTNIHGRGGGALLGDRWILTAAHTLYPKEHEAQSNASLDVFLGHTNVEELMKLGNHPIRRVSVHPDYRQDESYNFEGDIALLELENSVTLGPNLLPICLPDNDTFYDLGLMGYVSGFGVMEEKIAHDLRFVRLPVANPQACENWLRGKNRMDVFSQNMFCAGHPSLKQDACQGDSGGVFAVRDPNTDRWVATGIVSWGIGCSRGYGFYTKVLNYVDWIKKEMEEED

For “BAD16-C (residues 204-352, B. afzelii strain PGau) (domain or fragment)”, in assay [1], the IC50 of C3b deposition, classical pathway-specific ELISA with normal human serum is 9.6 nM; the IC50 of MAC deposition, classical pathway-specific ELISA with normal human serum came out at 5.9 nM; the IC50 of classical pathway hemolysis of sensitized sheep red blood cells by human serum is 55 nM.

With “human C1 complex (from UniProt P02745 23-245; P02746 28-253; P02747 29-245)”, the Kd in assay [2] turned out to be 6 nM; in assay [3], 5.4 nM; in assay [4], 4.7 nM; in assay [5] it was 5.6 nM. Further, the figures for the koff in assay [2], in assay [4] and in assay [5] were 0.0005 s⁻¹, 3.8e-05 s⁻¹ and 0.00054 s⁻¹, respectively.
